Common to all, as to settings: 50 mM potassium phosphate pH 8.0, 30 °C, air-saturated
Substrate in data set [1]: CC(C)[C@@H](N)C(=O)O
As to the kind of experiment: purified protein.

Substrate in data set [2]: C[C@@H](N)C(=O)O
As to the kind of experiment: purified protein.

Substrate in data set [3]: N[C@H](CO)C(=O)O
The data set is described as follows: purified protein.

Substrate in data set [4]: C[C@H](O)[C@@H](N)C(=O)O
As to the kind of experiment: purified protein.

Substrate in data set [5]: CC(C)C[C@@H](N)C(=O)O
As to the kind of experiment: purified protein.

Substrate in data set [6]: N[C@H](Cc1ccccc1)C(=O)O
The data set is described as follows: purified protein.

Substrate in data set [7]: CSCC[C@@H](N)C(=O)O
The data set is described as follows: peroxidase/ABTS coupled assay, A414. It counts as biochemical, Trigonopsis variabilis. The text has this: (§1) peroxidase/ABTS coupled assay, A414 on TvDAAO

Substrate in data set [8]: NC(=O)C[C@@H](N)C(=O)O
The data set is described as follows: peroxidase/ABTS coupled assay, A414. It counts as biochemical, Trigonopsis variabilis.
Excerpt: as §1

Substrate in data set [9]: NCCCC[C@@H](N)C(=O)O
As to the kind of experiment: peroxidase/ABTS coupled assay, A414. It is filed as biochemical, Trigonopsis variabilis.
Excerpt: as §1

Substrate in data set [10]: N[C@H](Cc1ccc(O)cc1)C(=O)O
As to the kind of experiment: peroxidase/ABTS coupled assay, A414. It counts as biochemical, Trigonopsis variabilis.
Excerpt: as §1

Substrate in data set [11]: N[C@H](Cc1c[nH]c2ccccc12)C(=O)O
The data set is described as follows: peroxidase/ABTS coupled assay, A414. It is filed as biochemical, Trigonopsis variabilis.
Excerpt: as §1

Changes are numbered by the printed parent chain. Numbers in names are those of the source.

By Km is commonly meant the concentration of substrate that gives half-maximal velocity. By kcat is commonly meant the maximal rate divided by the concentration of active sites. As usually defined, the kcat/Km is the second-order rate constant that governs catalysis at low substrate concentration.

B1: TvDAAO (Trigonopsis variabilis) (protein)
chain: MAKIVVIGAGVAGLTTALQLLRKGHEVTIVSEFTPGDLSIGYTSPWAGANWLTFYDGGKLADYDAVSYPILRELARSSPEAGIRLISQRSHVLKRDLPKLEVAMSAICQRNPWFKNTVDSFEIIEDRSRIVHDDVAYLVEFRSVCIHTGVYLNWLMSQCLSLGATVVKRRVNHIKDANLLHSSGSRPDVIVNCSGLFARFLGGVEDKKMYPIRGQVVLVRNSLPFMASFSSTPEKENEDEALYIMTRFDGTSIIGGCFQPNNWSSEPDPSLTHRILSRALDRFPELTKDGPLDIVRECVGHRPGREGGPRVELEKIPGVGFVVHNYGAAGAGYQSSYGMADEAVSYVERALTRPNL
notes: recombinant tvdaao gene in pET-33b(+) based plasmid, E. coli BL21(DE3) CodonPlus/pLysS; MonoQ purified; FAD homodimer; no tag stated
As for B1, the Km in “purified protein [1]” was 14400 ± 1200 µM; in the data set “purified protein [2]” it was 16700 ± 700 µM; in “purified protein [3]”, 36600 ± 3300 µM; in the data set “purified protein [4]”, 11100 ± 800 µM; in the data set “purified protein [5]” it was 780 ± 20 µM; in the data set “purified protein [6]”, 370 ± 40 µM. In addition, the Km in [7] worked out at 460 ± 30 µM; in [8], 22600 ± 1500 µM; in [9], 29300 ± 3400 µM; in data set [10], 450 ± 60 µM; in [11], 490 ± 40 µM. The kcat in the data set “purified protein [1]” was 85.3 s⁻¹; in “purified protein [2]” it was 109 s⁻¹; in “purified protein [3]”, 20.5 s⁻¹; in “purified protein [4]” it was 1.75 s⁻¹; in “purified protein [5]” it was 29.1 s⁻¹; in “purified protein [6]”, 27.2 s⁻¹. Also, the kcat in data set [7] came out at 80.5 ± 0.8 s⁻¹; in [8] it was 62.4 ± 2 s⁻¹; in data set [9] it was 3.54 ± 0.21 s⁻¹; in data set [10], 22.5 ± 1.9 s⁻¹; in [11] it was 42.4 ± 1.4 s⁻¹. Moreover, the kcat/Km stood at 5900 M⁻¹ s⁻¹ in “purified protein [1]”; 6500 M⁻¹ s⁻¹ in the data set “purified protein [2]”; 560 M⁻¹ s⁻¹ in the data set “purified protein [3]”; 160 M⁻¹ s⁻¹ in the data set “purified protein [4]”; 37300 M⁻¹ s⁻¹ in “purified protein [5]”; 73900 M⁻¹ s⁻¹ in the data set “purified protein [6]”. The kcat/Km in data set [7] came to 175000 M⁻¹ s⁻¹; in [8], 2800 M⁻¹ s⁻¹; in data set [9], 120 M⁻¹ s⁻¹; in [10], 50000 M⁻¹ s⁻¹; in data set [11], 86500 M⁻¹ s⁻¹.

B2: TvDAAO (Trigonopsis variabilis; S336A) (protein)
chain: B1 chain with S336A
Regarding B2, in “purified protein [5]”, the Km is 70 ± 10 µM, the turnover number (kcat) was 5 s⁻¹ and the kcat/Km was determined as 76400 M⁻¹ s⁻¹.

B3: TvDAAO (Trigonopsis variabilis; S105A) (protein)
chain: B1 chain with S105A
As for B3, in the data set “purified protein [5]”, the Michaelis constant (Km) came out at 280 ± 20 µM, the kcat turned out to be 30.4 s⁻¹ and the kcat/Km was 110000 M⁻¹ s⁻¹. Besides, in “purified protein [6]”, the Km turned out to be 260 ± 20 µM, the kcat is 32.3 s⁻¹ and the kcat/Km was found to be 124000 M⁻¹ s⁻¹.

B4: TvDAAO (Trigonopsis variabilis; S77A) (protein)
chain: B1 chain with S77A
notes: as for B1
Consider B4, for which, in data set [8], the Km was 4700 ± 700 µM, the kcat amounted to 17.2 ± 1 s⁻¹ and the kcat/Km came to 3700 M⁻¹ s⁻¹. Also, in data set [10], the Km is 6500 ± 700 µM, the kcat stood at 12.4 ± 0.8 s⁻¹ and the kcat/Km is 1900 M⁻¹ s⁻¹.

B5: TvDAAO (Trigonopsis variabilis; S277A) (protein)
chain: B1 chain with S277A
For the protein B5, in “purified protein [5]”, the Michaelis-Menten constant (Km) came to 150 ± 20 µM, the kcat was found to be 12 s⁻¹ and the kcat/Km worked out at 80000 M⁻¹ s⁻¹.

B6: TvDAAO (Trigonopsis variabilis; S67A) (protein)
chain: B1 chain with S67A
notes: as for B1
As to B6, in “purified protein [5]”, the Km is 340 ± 20 µM, the kcat was found to be 31.4 s⁻¹ and the kcat/Km is 93100 M⁻¹ s⁻¹. Moreover, in data set [7], the Km was 1350 ± 40 µM, the kcat worked out at 104 ± 3 s⁻¹ and the kcat/Km amounted to 77400 M⁻¹ s⁻¹.

B7: TvDAAO (Trigonopsis variabilis; S335A) (protein)
chain: B1 chain with S335A
notes: as for B1
B7: in data set [7], the Km stood at 4600 ± 200 µM, the kcat came to 45.9 ± 1.1 s⁻¹ and the kcat/Km was 9900 M⁻¹ s⁻¹.

For the origin of these results see publication PMC4207562, “Study of the Structure-Function-Stability Relationships in Yeast D-amino Acid Oxidase: Hydrophobization of Alpha-Helices” (Acta Naturae, 2014).
